Measured values: patent publication US12427210B2, “Compounds comprising a fibroblast activation protein ligand and use thereof” (priority 2019, dated 2025)

T1: D2S (h) (human), P14416
T1 chain: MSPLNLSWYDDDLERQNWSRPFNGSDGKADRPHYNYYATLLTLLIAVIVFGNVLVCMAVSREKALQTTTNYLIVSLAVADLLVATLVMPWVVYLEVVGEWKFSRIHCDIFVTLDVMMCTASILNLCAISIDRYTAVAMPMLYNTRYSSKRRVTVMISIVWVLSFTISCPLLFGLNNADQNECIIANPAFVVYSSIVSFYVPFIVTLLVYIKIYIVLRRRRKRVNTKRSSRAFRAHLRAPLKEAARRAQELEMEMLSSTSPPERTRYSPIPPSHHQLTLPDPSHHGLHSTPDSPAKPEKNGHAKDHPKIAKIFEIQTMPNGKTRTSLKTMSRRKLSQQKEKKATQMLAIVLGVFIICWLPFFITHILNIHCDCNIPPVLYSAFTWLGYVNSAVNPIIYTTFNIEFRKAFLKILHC

T2: M1 (h) (human), P11229
T2 chain: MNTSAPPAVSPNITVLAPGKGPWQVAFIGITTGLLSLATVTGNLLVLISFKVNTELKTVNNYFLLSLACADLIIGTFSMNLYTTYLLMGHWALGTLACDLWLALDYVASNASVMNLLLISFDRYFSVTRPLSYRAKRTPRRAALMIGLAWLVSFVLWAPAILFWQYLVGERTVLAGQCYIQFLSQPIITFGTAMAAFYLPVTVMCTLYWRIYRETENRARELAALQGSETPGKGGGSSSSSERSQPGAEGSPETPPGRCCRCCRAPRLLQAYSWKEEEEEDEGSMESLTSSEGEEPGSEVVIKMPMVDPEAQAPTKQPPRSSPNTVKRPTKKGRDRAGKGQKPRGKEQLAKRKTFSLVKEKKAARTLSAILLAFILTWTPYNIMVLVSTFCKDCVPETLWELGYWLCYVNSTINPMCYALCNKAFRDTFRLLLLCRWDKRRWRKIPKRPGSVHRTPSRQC

T3: alpha 1A (h) (human), P35348
T3 chain: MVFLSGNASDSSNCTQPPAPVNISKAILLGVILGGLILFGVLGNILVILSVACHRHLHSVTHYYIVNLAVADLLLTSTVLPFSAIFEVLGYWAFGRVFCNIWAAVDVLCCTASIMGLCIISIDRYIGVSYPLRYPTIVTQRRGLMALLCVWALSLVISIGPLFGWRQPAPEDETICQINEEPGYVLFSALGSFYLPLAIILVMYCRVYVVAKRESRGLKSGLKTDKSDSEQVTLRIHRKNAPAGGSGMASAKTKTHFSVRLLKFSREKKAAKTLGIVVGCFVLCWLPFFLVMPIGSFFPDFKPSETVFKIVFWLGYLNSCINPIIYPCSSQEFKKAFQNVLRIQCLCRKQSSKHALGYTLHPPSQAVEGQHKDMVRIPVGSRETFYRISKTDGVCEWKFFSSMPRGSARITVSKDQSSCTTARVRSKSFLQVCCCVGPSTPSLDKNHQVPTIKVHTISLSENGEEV

T4: delta (DOP) (h) (human), P41143
T4 chain: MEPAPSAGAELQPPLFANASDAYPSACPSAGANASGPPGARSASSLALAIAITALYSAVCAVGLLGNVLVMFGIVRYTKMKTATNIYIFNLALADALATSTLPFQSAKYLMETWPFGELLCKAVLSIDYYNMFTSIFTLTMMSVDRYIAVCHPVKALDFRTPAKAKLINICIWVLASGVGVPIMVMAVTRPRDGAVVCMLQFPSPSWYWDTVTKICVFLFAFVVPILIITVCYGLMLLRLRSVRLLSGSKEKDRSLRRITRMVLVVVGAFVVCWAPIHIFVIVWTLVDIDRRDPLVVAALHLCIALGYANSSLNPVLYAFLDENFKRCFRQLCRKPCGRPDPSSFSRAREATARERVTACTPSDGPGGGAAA

T5: dopamine transporter (h) (human), Q01959
T5 chain: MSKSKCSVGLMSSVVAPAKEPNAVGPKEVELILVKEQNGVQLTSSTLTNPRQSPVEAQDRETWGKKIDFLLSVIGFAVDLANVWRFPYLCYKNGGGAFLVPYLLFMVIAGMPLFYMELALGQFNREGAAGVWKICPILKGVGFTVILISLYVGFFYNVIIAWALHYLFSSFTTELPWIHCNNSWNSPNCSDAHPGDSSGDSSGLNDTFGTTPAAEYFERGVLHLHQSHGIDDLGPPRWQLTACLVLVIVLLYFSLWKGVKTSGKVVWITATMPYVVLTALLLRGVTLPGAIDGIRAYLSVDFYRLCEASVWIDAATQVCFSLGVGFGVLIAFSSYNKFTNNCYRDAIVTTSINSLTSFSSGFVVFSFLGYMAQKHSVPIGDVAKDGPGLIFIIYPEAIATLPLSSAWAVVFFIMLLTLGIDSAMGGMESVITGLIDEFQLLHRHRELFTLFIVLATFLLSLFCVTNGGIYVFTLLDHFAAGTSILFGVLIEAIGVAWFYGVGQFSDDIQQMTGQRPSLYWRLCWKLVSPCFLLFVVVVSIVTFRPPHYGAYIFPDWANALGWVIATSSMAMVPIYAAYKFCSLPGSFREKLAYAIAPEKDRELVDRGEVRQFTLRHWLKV

B1: Hex-[Cys(tMeBn(DOTA-PP))-Pro-Pro-Thr-Gln-Phe-Cys]-Asp-NH2 (3BP-3407) (peptide)
peptide: CPPTQFCD
modifications: here or on the partner: N-terminal hexanoyl (Hex); Cys1 and Cys7 cyclised through tMeBn carrying DOTA-PP; C-terminal amide
B2: Hex-[Cys(tMeBn(DOTA-AET))-Pro-Pro-Thr-Gln-Phe-Cys]-OH (3BP-3554) (peptide)
peptide: CPPTQFC
modifications: here or on the partner: N-terminal hexanoyl (Hex); Cys1 and Cys7 cyclised through tMeBn carrying DOTA-AET; free C-terminal acid (-OH)

How the values were obtained:
Assay in all cases: radioligand displacement, compound at 10 µM
Conditions in all cases: remark: other sources report otherwise
D2S (h) (human), P14416 = molecular target: T1, D2S (h) (human), P14416
M1 (h) (human), P11229 = molecular target: T2, M1 (h) (human), P11229
V1a (h) (human), P37288 = molecular target: V1a (h) (human), P37288
[1] = molecular target: T3, alpha 1A (h) (human), P35348
[2] = molecular target: T4, delta (DOP) (h) (human), P41143
[3] = molecular target: T5, dopamine transporter (h) (human), Q01959
[4] = molecular target: mu (MOP) (h) (human), P35372
Chain of mu (MOP) (h) (human), P35372 (P35372 whole entry): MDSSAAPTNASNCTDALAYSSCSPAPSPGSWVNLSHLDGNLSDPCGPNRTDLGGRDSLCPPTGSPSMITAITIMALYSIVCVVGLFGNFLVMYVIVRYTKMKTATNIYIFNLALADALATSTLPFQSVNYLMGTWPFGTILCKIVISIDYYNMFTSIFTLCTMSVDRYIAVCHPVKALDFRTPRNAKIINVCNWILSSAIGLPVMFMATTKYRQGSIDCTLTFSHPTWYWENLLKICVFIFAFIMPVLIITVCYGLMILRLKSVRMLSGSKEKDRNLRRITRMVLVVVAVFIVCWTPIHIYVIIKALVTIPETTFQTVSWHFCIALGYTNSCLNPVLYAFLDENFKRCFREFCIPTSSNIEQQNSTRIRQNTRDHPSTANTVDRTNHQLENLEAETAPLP

[5] = molecular target: norepinephrine transporter (h) (human), P23975
Chain of norepinephrine transporter (h) (human), P23975 (P23975 whole entry): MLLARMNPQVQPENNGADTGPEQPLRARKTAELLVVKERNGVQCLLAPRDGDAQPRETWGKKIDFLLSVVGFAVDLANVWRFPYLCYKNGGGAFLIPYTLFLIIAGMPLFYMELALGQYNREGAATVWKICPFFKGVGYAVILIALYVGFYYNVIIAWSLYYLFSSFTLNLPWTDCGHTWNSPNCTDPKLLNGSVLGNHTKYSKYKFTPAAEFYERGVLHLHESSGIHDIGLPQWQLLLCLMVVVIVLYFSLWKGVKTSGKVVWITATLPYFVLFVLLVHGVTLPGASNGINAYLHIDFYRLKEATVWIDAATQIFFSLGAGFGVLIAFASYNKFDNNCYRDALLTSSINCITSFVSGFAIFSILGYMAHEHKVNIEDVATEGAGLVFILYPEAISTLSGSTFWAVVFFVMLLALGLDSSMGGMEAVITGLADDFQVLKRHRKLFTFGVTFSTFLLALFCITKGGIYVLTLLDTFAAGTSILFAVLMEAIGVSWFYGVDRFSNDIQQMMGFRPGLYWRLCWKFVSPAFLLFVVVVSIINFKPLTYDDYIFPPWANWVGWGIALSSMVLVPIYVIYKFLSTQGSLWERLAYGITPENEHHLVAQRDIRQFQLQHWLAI

Binder	% Inhibition of Specific Binding (D2S (h) (human), P14416)	% Inhibition of Specific Binding (M1 (h) (human), P11229)	% Inhibition of Specific Binding (V1a (h) (human), P37288)	% Inhibition of Specific Binding [1]	% Inhibition of Specific Binding [2]	% Inhibition of Specific Binding [3]	% Inhibition of Specific Binding [4]	% Inhibition of Specific Binding [5]
B1	15%	6%	16%	2%	0%	12%	2%	-8%
B2	-7%	8%	1%	-12%	1%	7%	-10%	-5%
